Results reported in the nanobody polyreactivity screen of Harvey et al. (2022).

assay: yeast display, Sf9 membrane polyspecificity reagent, FACS + sequencing; frameworks hold sequencing errors
Summary of the method: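 A nanobody's polyreactivity label depends on the gate it was sorted from. Yeast display cells were stained with 10% biotinylated, detergent-solubilized Sf9 membrane reagent for 1 hour at 4 °C, enriched on streptavidin microbeads and sorted by FACS. The low and high (top ~1%) gates were set on anti-HA fluorescence for expression and streptavidin fluorescence for reagent binding.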

| Sequence | polyreactivity (PSR sort gate) |
| --- | --- |
| QVQLVESGGGLVQAGGSLRLSCAASGSTFRPNAMGWYRQAPGTERELVAAITSGGSTYYADSVKGRFTISRDNAKNTVYLQMNRLKPEDTAVYYFNKDKFWSYPVQVNLDYWGQGTQVTVSS | low polyreactivity |
| QVQHVESGGGLVQAGGSLRLSCAASGRIFHRNAMGWYRKAPGKERELVAAISYRSGSTYYADSVKGRFTISRDNEKYTVYLQMNSLKPEDTAVYYCAKVRHIRFHYYYGYQSYYYWGQGTQVTLSS | high polyreactivity |
| QVQLVESGGGLVQAGGSLRLSCAASGSIFGGYGMGWYSQAPGKERELVAAITSGSSTYYADSVKGRFTISRDNAKNTVYLLMNSLKPEDTAVYYCAKVSYYPWRYDYWGQGTQVTVTS | low polyreactivity |
| QVQLVESGGGLVQAGGSLSLSCAASGSTFVPYAMGWYRPAPGKERELVAAISSTGGSTYYADSVKGRFTISRDNAKNTVYLQMNSLKAEDTAVYYCNALAKIRYGQINKGYYWGQGTQVTVSS | high polyreactivity |
| QVQLVESGGGLVQAGGSLRLSCAASGSIFVVYAMGWYRQAPGKERELVAGISDGDNTNYADSVKGRFTISRDNAKNTVYLQMNSLKPEDTAVYYCNADGTSRNLEGFDYWGQGTQVTVSS | low polyreactivity |
| QVQLVESGGGLVQAGGSLRLSCAASGFTFTTYVMGSYRQAPGKERELVAAISRRGTSTRYADSVKGRFTISRDNAKNTVYLQMNSLKPEDTAVYYCAADRPYSIVPYDYWGQGTQVTVSS | high polyreactivity |
| QVQRVESGGGLVQAGGSLRLSCAASGRTFPPYAMGWYRQAPGKERELVASIRRGGSTHYADSVKGRFTISRDNAKNTVYLQMNSLKPEDTAVYYCNADVIFGYTHYNYWGQGTQVTVSS | high polyreactivity |
| QVQLVESGGGLVQAGGSLRVSCAASGSIFYYAMGWYRQAPGKERELVASIRSGGSTKFADSVKGRFTISRDNAKNTVYLQMNSLKPEDTAVYYCAARGVIRYTYKSTPYDYWGQGTQVTVSS | high polyreactivity |
| QVQLVESGGGLVQAGCSLRLSSAASGSTFRANAMGWYRQAPGKERELVAAITSGGSTNYADSVKGRFTISRDNAKNTVYLQMNRRKPEDTAVYYCADESYQEHSFYVYYGYDYWGQGTQVTVSS | low polyreactivity |
| QVQLVESGGGLVQAGGSLRLSCAASGYTFRYYAMGWYRQAPGKERELVARITGRAGSTYYADSVKGRFTISRDNAKNTVYLQMNSLKPEDTAVYYSAASIREGFYWGQGTQVTVSS | high polyreactivity |
| QVQLVESGGGLVQAGGSLRLSCAASGRTFSGYAMGWYRQAPGKERELVAAISWRGGRTYYADSVKGRFTISRDNAKNTVYLQMNSLKPEDTAVYYCATTVGDAGRRYYYWGQGTQVTVSS | high polyreactivity |
| QVQLVESGGGLVQAGGSLLLSCAASGNIIYSNALGWYRQGPGKERELVAAISSGGITYYADSVKGRFTISRDNAKNTVYLQMNSLKPEDTAVYYCAAYIRNWRATYEYWGQGTQVTVSS | high polyreactivity |
| QVQLVESGGGLVQAGGSLRLSCAASGLIFDYYAMGWYRQAPGKERELVAAISSGGDTTYADSVKGRFTISRDNAKNTVYLQMNSLKPEDTAVYYCAADRWIPVYILGADGYDYWGQGTQVTVSS | low polyreactivity |
| QVQLVESAGGLVQAGGSLRLSCAASGSIFGPYAMGWYRQAPGKERELVAVISSGDSTNYADSVKGRFTISRDNAKNTVYLQMNSLKPEDTAVYYCATRYLLYRGGHTLFYHFDYWGLGTQVTVSS | low polyreactivity |
| QVQLVESAGGLVQAGGSLRLSCAPSGRIFPVNSMGSYRQAPGKERELVATMSSGDITNYADSVKGRFTISRDNATITVYLQMNCLKPEDNAVYYCARDSKRLARYYYWGQGTQVTVSS | low polyreactivity |
| QVHLVESGGGLVQAGGSLRLSCAPSGFIFDYYTMGWYRQAPGKESELVAAITWSGGRTNYADSVKGRFTISRDNAKYTVYLQMNSLKPEDTAVYYCNARRRARGAPYYLYGYSGQGTQVTVSS | low polyreactivity |
| QVQLVESGGGLVQAGGSLRLSCAASGRTFGVYAMGWYRQAPGKERELVAGIRWRGGSTYYADSVKGRFTISRDNAKNTVYLQMNSLKPEDTAVYYWAARVQFPYPDYAWITVLYDYWGQCTQVTVSS | low polyreactivity |
